# From paper PMC2956116 (Structure (London, England : 1993), 2010)
# Target: the molecule itself
# Assay: cryo-EM structure
protein,measurement,value
"Staphylococcus aureus pyruvate carboxylase (enzyme, S. aureus, UniProt A0A0H3JRU9 1-1150, looked up, biotinylated Lys1144) MKQIKKLLVANRGEIAIRIFRAAAELDISTVAIYSNEDKSSLHRYKADESYLVGSDLGPAESYLNIERIIDVAKQANVDAIHPGYGFLSENEQFARRCAEEGIKFIGPHLEHLDMFGDKVKARTTAIKADLPVIPGTDGPIKSYELAKEFAEEAGFPLMIKATSGGGGKGMRIVREESELEDAFHRAKSEAEKSFGNSEVYIERYIDNPKHIEVQVIGDEHGNIVHLFERDCSVQRRHQKVVEVAPSVGLSPTLRQRICDAAIQLMENIKYVNAGTVEFLVSGDEFFFIEVNPRVQVEHTITEMVTGIDIVKTQILVAAGADLFGEEINMPQQKDITTLGYAIQCRITTEDPLNDFMPDTGTIIAYRSSGGFGVRLDAGDGFQGAEISPYYDSLLVKLSTHAISFKQAEEKMVRSLREMRIRGVKTNIPFLINVMKNKKFTSGDYTTKFIEETPELFDIQPSLDRGTKTLEYIGNVTINGFPNVEKRPKPDYELASIPTVSSSKIASFSGTKQLLDEVGPKGVAEWVKKQDDVLLTDTTFRDAHQSLLATRVRTKDMINIASKTADVFKDGFSLEMWGGATFDVAYNFLKENPWERLERLRKAIPNVLFQMLLRASNAVGYKNYPDNVIHKFVQESAKAGIDVFRIFDSLNWVDQMKVANEAVQEAGKISEGTICYTGDILNPERSNIYTLEYYVKLAKELEREGFHILAIKDMAGLLKPKAAYELIGELKSAVDLPIHLHTHDTSGNGLLTYKQAIDAGVDIIDTAVASMSGLTSQPSANSLYYALNGFPRHLRTDIEGMESLSHYWSTVRTYYSDFESDIKSPNTEIYQHEMPGGQYSNLSQQAKSLGLGERFDEVKDMYRRVNFLFGDIVKVTPSSKVVGDMALYMVQNDLDEQSVITDGYKLDFPESVVSFFKGEIGQPVNGFNKDLQAVILKGQEALTARPGEYLEPVDFEKVRELLEEEQQGPVTEQDIISYVLYPKVYEQYIQTRNQYGNLSLLDTPTFFFGMRNGETVEIEIDKGKRLIIKLETISEPDENGNRTIYYAMNGQARRIYIKDENVHTNANVKPKADKSNPSHIGAQMPGSVTEVKVSVGETVKANQPLLITEAMKMETTIQAPFDGVIKQVTVNNGDTIATGDLLIEIEKATD",stoichiometry N,4
